B1: TIR1 (wild type, epitope-tagged, expressed in Nicotiana) [Arabidopsis] / GST-IAA3 [Arabidopsis] (parent)
chain 1: MQKRIALSFPEEVLEHVFSFIQLDKDRNSVSLVCKSWYEIERWCRRKVFIGNCYAVSPATVIRRFPKVRSVELKGKPHFADFNLVPDGWGGYVYPWIEAMSSSYTWLEEIRLKRMVVTDDCLELIAKSFKNFKVLVLSSCEGFSTDGLAAIAATCRNLKELDLRESDVDDVSGHWLSHFPDTYTSLVSLNISCLASEVSFSALERLVTRCPNLKSLKLNRAVPLEKLATLLQRAPQLEELGTGGYTAEVRPDVYSGLSVALSGCKELRCLSGFWDAVPAYLPAVYSVCSRLTTLNLSYATVQSYDLVKLLCQCPKLQRLWVLDYIEDAGLEVLASTCKDLRELRVFPSEPFVMEPNVALTEQGLVSVSMGCPKLESVLYFCRQMTNAALITIARNRPNMTRFRLCIIEPKAPDYLTLEPLDIGFGAIVEHCKDLRRLSLSGLLTDKVFEYIGTYAKKMEMLSVAFAGDSDLGMHHVLSGCDSLRKLEIRDCPFGDKALLANASKLETMRSLWMSSCSVSFGACKLLGQKMPKLNVEVIDERGAPDSRPESCPVERVFIYRTVAGPRFDMPGFVWNMDQDSTMRFSRQIITTNGL
chain 2: MDEFVNLKETELRLGLPGTDNVCEAKERVSCCNNNNKRVLSTDTEKEIESSSRKTETSPPRKAQIVGWPPVRSYRKNNIQSKKNESEHEGQGIYVKVSMDGAPYLRKIDLSCYKGYSELLKALEVMFKFSVGEYFERDGYKGSDFVPTYEDKDGDWMLIGDVPWEMFICTCKRLRIMKGSEAKGLGCGV

Variants of: B1
Assay: pull-down (semi in vitro, GST-IAA3 with Nicotiana cell extracts, anti-HA blot)
Conditions: 10 µM 2,4-D

ratio to parent | Variant
0.44 | chain 1 MQKRIALSFPEEVLEHVFSFIQLDKDRNSVSLVCKSWYEIERWCRRKVFIGNCYAVSPATVIRRFPKVRSVELKGKPHFADFNLVPDGWGGYVYPWIEAMSSSYTWLEEIRLKRMVATDDCLELIAKSFKNFKVLVLSSCEGFSTDGLAAIAATCRNLKELDLRESDVDDVSGHWLSHFPDTYTSLVSLNISCLASEVSFSALERLVTRCPNLKSLKLNRAVPLEKLATLLQRAPQLEELGTGGYTAEVRPDVYSGLSVALSGCKELRCLSGFWDAVPAYLPAVYSVCSRLTTLNLSYATVQSYDLVKLLCQCPKLQRLWVLDYIEDAGLEVLASTCKDLRELRVFPSEPFVMEPNVALTEQGLVSVSMGCPKLESVLYFCRQMTNAALITIARNRPNMTRFRLCIIEPKAPDYLTLEPLDIGFGAIVEHCKDLRRLSLSGLLTDKVFEYIGTYAKKMEMLSVAFAGDSDLGMHHVLSGCDSLRKLEIRDCPFGDKALLANASKLETMRSLWMSSCSVSFGACKLLGQKMPKLNVEVIDERGAPDSRPESCPVERVFIYRTVAGPRFDMPGFVWNMDQDSTMRFSRQIITTNGL [chain 1 V117A]
0.46 | chain 1 MQKRIALSFPEEVLEHVFSFIQLDKDRNSVSLVCKSWYEIERWCRRKVFIGNCYAVSPATVIRRFPKVRSVELKGKPHFADFNLVPDGWGGYVYPWIEAMSSSYTWLEEIRLKRMVVTDDCLELIAKSFKNFKVLVLSSCEGFSTDGLAAAAATCRNLKELDLRESDVDDVSGHWLSHFPDTYTSLVSLNISCLASEVSFSALERLVTRCPNLKSLKLNRAVPLEKLATLLQRAPQLEELGTGGYTAEVRPDVYSGLSVALSGCKELRCLSGFWDAVPAYLPAVYSVCSRLTTLNLSYATVQSYDLVKLLCQCPKLQRLWVLDYIEDAGLEVLASTCKDLRELRVFPSEPFVMEPNVALTEQGLVSVSMGCPKLESVLYFCRQMTNAALITIARNRPNMTRFRLCIIEPKAPDYLTLEPLDIGFGAIVEHCKDLRRLSLSGLLTDKVFEYIGTYAKKMEMLSVAFAGDSDLGMHHVLSGCDSLRKLEIRDCPFGDKALLANASKLETMRSLWMSSCSVSFGACKLLGQKMPKLNVEVIDERGAPDSRPESCPVERVFIYRTVAGPRFDMPGFVWNMDQDSTMRFSRQIITTNGL [chain 1 I151A]

Second part, the variant before the results:

Variant | ratio to parent
chain 1 MQKRIALSFPEEVLEHVFSFIQLDKDRNSVSLVCKSWYEIERWCRRKVFIGNCYAVSPATVIRRFPKVRSVELKGKPHFADFNLVPDGWGGYVYPWIEAMSSSYTWLEEIRLKRMVVTDDCLELIAKSFKNFKVLVLSSCEGASTDGLAAIAATCRNLKELDLRESDVDDVSGHWLSHFPDTYTSLVSLNISCLASEVSFSALERLVTRCPNLKSLKLNRAVPLEKLATLLQRAPQLEELGTGGYTAEVRPDVYSGLSVALSGCKELRCLSGFWDAVPAYLPAVYSVCSRLTTLNLSYATVQSYDLVKLLCQCPKLQRLWVLDYIEDAGLEVLASTCKDLRELRVFPSEPFVMEPNVALTEQGLVSVSMGCPKLESVLYFCRQMTNAALITIARNRPNMTRFRLCIIEPKAPDYLTLEPLDIGFGAIVEHCKDLRRLSLSGLLTDKVFEYIGTYAKKMEMLSVAFAGDSDLGMHHVLSGCDSLRKLEIRDCPFGDKALLANASKLETMRSLWMSSCSVSFGACKLLGQKMPKLNVEVIDERGAPDSRPESCPVERVFIYRTVAGPRFDMPGFVWNMDQDSTMRFSRQIITTNGL [chain 1 F143A] | 0.5
chain 1 MQKRIALSFPEEVLEHVFSFIQLDKDRNSVSLVCKSWYEIERWCRRKVFIGNCYAVSPATVIRRFPKVRSVELKGKPHFADFNLVPDGWGGYVYPWIEAMSSSYTWLEEIRLKRMVVTDDCLELIAKSFKNFKVLVLSSCEAFSTDGLAAIAATCRNLKELDLRESDVDDVSGHWLSHFPDTYTSLVSLNISCLASEVSFSALERLVTRCPNLKSLKLNRAVPLEKLATLLQRAPQLEELGTGGYTAEVRPDVYSGLSVALSGCKELRCLSGFWDAVPAYLPAVYSVCSRLTTLNLSYATVQSYDLVKLLCQCPKLQRLWVLDYIEDAGLEVLASTCKDLRELRVFPSEPFVMEPNVALTEQGLVSVSMGCPKLESVLYFCRQMTNAALITIARNRPNMTRFRLCIIEPKAPDYLTLEPLDIGFGAIVEHCKDLRRLSLSGLLTDKVFEYIGTYAKKMEMLSVAFAGDSDLGMHHVLSGCDSLRKLEIRDCPFGDKALLANASKLETMRSLWMSSCSVSFGACKLLGQKMPKLNVEVIDERGAPDSRPESCPVERVFIYRTVAGPRFDMPGFVWNMDQDSTMRFSRQIITTNGL [chain 1 G142A] | 0.45
chain 1 MQKRIALSFPEEVLEHVFSFIQLDKDRNSVSLVCKSWYEIERWCRRKVFIGNCYAVSPATVIRRFPKVRSVELKGKPHFADFNLVPDGWGGYVYPWIEAMSSSYTWLEEIRLKRMVVTDDCLELIAKSFKNFKVLVLSSAEGFSTDGLAAIAATCRNLKELDLRESDVDDVSGHWLSHFPDTYTSLVSLNISCLASEVSFSALERLVTRCPNLKSLKLNRAVPLEKLATLLQRAPQLEELGTGGYTAEVRPDVYSGLSVALSGCKELRCLSGFWDAVPAYLPAVYSVCSRLTTLNLSYATVQSYDLVKLLCQCPKLQRLWVLDYIEDAGLEVLASTCKDLRELRVFPSEPFVMEPNVALTEQGLVSVSMGCPKLESVLYFCRQMTNAALITIARNRPNMTRFRLCIIEPKAPDYLTLEPLDIGFGAIVEHCKDLRRLSLSGLLTDKVFEYIGTYAKKMEMLSVAFAGDSDLGMHHVLSGCDSLRKLEIRDCPFGDKALLANASKLETMRSLWMSSCSVSFGACKLLGQKMPKLNVEVIDERGAPDSRPESCPVERVFIYRTVAGPRFDMPGFVWNMDQDSTMRFSRQIITTNGL [chain 1 C140A] | 0.62

Reference: PMC5019376
